According to patent US20200262877A1, “ION CHANNEL-BINDING PEPTIDES AND METHODS OF USE THEREOF” (priority 2017, published 2020):

Columns and labels:
Nav1.5 = Nav1.5 (Homo sapiens, UniProt Q14524); test: in vitro; settings: 100% = no change; for Activity of Nav1.5 with peptide, expressed as a percentage of the reference compound: peptide at 0.2 μM; for Activity of Nav1.5 with peptide (percentage of the reference compound): peptide at 20 μM
Procedure, shortened: (§1)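 Peptides were tested in duplicate at final 20 μM and 200 nM, with concentration set by amino acid analysis, in HEPES-buffered saline. They were applied for at least 5 min to HEK293 or CHO cells transfected with each channel. Currents were expressed as % inhibition, 1-(Ipeptide/Icontrol)×100, or % activation, Ipeptide/Icontrol×100, against a channel-matched reference compound.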

hERG = hERG (Homo sapiens, UniProt Q12809); test: in vitro; settings: 100% = no change, <100% = inhibition
Chain of hERG (Q12809 whole entry): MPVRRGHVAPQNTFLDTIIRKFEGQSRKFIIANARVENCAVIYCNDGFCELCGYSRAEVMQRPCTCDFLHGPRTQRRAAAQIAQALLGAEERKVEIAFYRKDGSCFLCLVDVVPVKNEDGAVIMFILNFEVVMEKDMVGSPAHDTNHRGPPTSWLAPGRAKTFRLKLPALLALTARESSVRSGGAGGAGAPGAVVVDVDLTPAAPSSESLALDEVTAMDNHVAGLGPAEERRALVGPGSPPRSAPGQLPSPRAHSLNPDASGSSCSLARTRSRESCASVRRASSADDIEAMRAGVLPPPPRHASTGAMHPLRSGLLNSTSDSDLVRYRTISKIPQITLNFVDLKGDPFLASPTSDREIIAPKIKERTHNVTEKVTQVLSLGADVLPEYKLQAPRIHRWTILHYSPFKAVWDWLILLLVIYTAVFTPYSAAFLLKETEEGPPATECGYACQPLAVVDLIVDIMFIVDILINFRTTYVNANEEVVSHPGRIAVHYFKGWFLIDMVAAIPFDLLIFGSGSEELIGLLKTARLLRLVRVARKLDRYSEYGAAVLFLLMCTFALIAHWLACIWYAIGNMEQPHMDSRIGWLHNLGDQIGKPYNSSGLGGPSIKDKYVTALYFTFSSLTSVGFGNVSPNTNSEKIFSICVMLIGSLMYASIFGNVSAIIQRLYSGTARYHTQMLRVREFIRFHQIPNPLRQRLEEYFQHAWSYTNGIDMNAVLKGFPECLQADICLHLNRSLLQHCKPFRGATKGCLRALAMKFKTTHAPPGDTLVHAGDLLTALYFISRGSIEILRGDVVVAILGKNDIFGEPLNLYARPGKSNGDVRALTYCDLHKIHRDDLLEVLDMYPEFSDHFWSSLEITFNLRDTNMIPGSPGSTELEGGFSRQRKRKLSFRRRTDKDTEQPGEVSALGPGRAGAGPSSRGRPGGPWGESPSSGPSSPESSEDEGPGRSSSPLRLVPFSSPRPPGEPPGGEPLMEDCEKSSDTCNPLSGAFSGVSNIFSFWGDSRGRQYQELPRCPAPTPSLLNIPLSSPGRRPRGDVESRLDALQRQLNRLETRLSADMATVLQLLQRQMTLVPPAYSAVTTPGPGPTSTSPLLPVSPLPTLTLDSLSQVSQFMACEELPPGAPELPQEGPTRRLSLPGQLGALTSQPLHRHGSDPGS
Procedure, shortened: as §1

5HT3a = biological target: T1, 5HT3a (Homo sapiens, UniProt P46098); test: Ion channel panel (IonWorks Barracuda): 5HT3a; format: cell-based
T1 construct: host or cells: HEK293 or CHO
T1 sequence (P46098 whole entry, looked up): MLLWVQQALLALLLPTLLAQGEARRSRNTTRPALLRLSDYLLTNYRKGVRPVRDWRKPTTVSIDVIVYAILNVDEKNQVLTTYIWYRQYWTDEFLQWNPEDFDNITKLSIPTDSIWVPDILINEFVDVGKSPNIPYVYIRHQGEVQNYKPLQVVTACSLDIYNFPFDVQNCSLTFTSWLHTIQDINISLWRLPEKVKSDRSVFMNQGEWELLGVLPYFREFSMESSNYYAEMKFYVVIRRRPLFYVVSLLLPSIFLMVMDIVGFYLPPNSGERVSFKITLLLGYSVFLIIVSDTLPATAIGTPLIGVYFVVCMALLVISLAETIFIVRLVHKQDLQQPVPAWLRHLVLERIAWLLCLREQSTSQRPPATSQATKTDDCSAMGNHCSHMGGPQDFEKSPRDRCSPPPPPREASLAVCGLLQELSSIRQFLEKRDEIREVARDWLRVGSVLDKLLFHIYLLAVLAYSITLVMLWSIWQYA
Procedure, shortened: as §1

NR2B = biological target: T2, NR2B (Homo sapiens, UniProt Q13224); test: Ion channel panel (IonWorks Barracuda): NR2B; format: cell-based; settings: 100% = no change, <100% = inhibition
T2 construct: host or cells: HEK293 or CHO
Procedure, shortened: as §1

NR2A = biological target: T3, NR2A (Homo sapiens, UniProt Q12879); test: Ion channel panel (IonWorks Barracuda): NR2A; format: cell-based; settings: 100% = no change, <100% = inhibition
T3 construct: host or cells: HEK293 or CHO
Procedure, shortened: as §1

Cav2.1 = biological target: T4, Cav2.1 (Homo sapiens, UniProt O00555); test: cell-based; settings: 100% = no change, <100% = inhibition
T4 construct: host or cells: HEK293 or CHO
Procedure, shortened: as §1

Cav2.2 = biological target: T5, Cav2.2 (Homo sapiens, UniProt Q00975); test: cell-based; settings: 100% = no change, <100% = inhibition
T5 construct: host or cells: HEK293 or CHO
Procedure, shortened: as §1

Kv2.1 = biological target: T6, Kv2.1 (Homo sapiens, UniProt Q14721); test: cell-based; settings: 100% = no change, <100% = inhibition
T6 construct: host or cells: HEK293 or CHO
Procedure, shortened: as §1

GABA = test: Ion channel panel (IonWorks Barracuda): GABA; format: cell-based; settings: 100% = no change, <100% = inhibition
Procedure, shortened: as §1

TRPA1 = biological target: T7, TRPA1 (Homo sapiens, UniProt O75762); test: Ion channel panel (IonWorks Barracuda): TRPA1; format: cell-based; settings: 100% = no change, <100% = inhibition
T7 construct: host or cells: HEK293 or CHO
Procedure, shortened: as §1

α4β2 = biological target: T8, α4β2 (Homo sapiens, UniProt P17787+P43681); test: Ion channel panel (IonWorks Barracuda): α4β2; format: cell-based; settings: 100% = no change, <100% = inhibition
T8 construct: host or cells: HEK293 or CHO
Procedure, shortened: as §1

Kv1.3 = biological target: T9, Kv1.3 (Homo sapiens, UniProt P22001); test: cell-based; format: cell-based; settings: 100% = no change, <100% = inhibition
T9 construct: host or cells: HEK293 or CHO
Procedure, shortened: as §1

Kv1.2 = biological target: T10, Kv1.2 (Homo sapiens, UniProt P16389); test: cell-based; format: cell-based; settings: 100% = no change, <100% = inhibition
T10 construct: host or cells: HEK293 or CHO
Procedure, shortened: as §1

Kv1.1 = biological target: T11, Kv1.1 (Homo sapiens, UniProt Q09470); test: cell-based; format: cell-based; settings: 100% = no change, <100% = inhibition
T11 construct: host or cells: HEK293 or CHO
Procedure, shortened: as §1

Nav1.7 = biological target: T12, Nav1.7 (Homo sapiens, UniProt Q15858); test: cell-based; format: cell-based; settings: 100% = no change; for Activity of Nav1.7 with peptide, expressed as a percentage of the reference compound: peptide at 0.2 μM; for Activity of Nav1.7 with peptide (percentage of the reference compound): peptide at 20 μM
T12 construct: host or cells: HEK293 or CHO
T12 sequence (Q15858 whole entry): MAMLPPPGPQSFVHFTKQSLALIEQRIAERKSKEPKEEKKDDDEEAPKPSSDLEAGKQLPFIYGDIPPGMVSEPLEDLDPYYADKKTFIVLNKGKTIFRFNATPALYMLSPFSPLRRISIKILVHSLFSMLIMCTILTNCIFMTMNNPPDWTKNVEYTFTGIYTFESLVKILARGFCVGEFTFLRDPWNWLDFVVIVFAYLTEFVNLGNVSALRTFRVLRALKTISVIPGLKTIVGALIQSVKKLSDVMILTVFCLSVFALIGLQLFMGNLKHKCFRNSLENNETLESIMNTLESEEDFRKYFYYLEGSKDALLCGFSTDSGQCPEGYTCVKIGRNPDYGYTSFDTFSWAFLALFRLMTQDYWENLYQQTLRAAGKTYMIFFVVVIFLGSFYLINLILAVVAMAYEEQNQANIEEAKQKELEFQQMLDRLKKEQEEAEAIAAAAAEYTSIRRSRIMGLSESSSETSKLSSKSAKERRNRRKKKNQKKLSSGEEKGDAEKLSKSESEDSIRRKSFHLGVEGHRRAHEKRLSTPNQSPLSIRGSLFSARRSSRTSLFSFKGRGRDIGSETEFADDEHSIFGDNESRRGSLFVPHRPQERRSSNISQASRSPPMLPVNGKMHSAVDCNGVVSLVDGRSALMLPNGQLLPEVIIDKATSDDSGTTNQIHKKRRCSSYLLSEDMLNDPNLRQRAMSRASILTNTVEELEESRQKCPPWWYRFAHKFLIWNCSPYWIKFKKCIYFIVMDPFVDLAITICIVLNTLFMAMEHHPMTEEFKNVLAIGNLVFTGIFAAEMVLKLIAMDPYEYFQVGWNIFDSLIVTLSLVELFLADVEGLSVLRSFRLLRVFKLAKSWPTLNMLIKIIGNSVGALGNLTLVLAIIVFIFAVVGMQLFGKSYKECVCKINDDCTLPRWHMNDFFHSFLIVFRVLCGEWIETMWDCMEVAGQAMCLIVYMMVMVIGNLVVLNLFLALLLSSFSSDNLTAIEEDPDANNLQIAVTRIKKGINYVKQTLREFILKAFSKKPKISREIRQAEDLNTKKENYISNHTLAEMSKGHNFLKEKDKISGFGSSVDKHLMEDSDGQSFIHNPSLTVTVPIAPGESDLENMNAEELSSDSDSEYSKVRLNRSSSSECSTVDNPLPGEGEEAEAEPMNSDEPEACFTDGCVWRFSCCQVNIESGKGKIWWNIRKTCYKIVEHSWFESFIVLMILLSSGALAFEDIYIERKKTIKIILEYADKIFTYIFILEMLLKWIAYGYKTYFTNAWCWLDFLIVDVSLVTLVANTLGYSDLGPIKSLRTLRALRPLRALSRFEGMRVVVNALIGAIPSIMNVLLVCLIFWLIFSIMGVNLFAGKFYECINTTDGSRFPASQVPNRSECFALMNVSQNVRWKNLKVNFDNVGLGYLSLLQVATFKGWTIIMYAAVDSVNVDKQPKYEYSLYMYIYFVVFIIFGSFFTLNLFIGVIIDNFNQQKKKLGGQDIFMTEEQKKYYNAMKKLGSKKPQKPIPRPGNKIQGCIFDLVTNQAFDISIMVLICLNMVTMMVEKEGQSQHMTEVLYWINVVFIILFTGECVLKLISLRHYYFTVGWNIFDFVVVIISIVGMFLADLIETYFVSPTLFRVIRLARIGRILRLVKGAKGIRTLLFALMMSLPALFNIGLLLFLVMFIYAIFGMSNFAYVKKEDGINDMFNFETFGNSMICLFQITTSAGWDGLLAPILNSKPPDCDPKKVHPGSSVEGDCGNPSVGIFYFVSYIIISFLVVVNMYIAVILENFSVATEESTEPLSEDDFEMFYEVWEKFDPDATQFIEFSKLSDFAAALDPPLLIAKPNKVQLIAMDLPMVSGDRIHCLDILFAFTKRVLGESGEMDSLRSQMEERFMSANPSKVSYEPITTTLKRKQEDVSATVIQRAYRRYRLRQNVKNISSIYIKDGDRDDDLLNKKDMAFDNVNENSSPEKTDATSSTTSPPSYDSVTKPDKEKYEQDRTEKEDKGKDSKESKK

Kir2.1 = biological target: T13, Kir2.1 (Homo sapiens, UniProt P63252); test: Ion channel panel (IonWorks Barracuda): Kir2.1; format: cell-based; settings: 100% = no change, <100% = inhibition
T13 construct: host or cells: HEK293 or CHO
Procedure, shortened: as §1

TRPV1 = biological target: T14, TRPV1 (Homo sapiens, UniProt Q8NER1); test: Ion channel panel (IonWorks Barracuda): TRPV1; format: cell-based; settings: 100% = no change, <100% = inhibition
T14 construct: host or cells: HEK293 or CHO
Procedure, shortened: as §1

α3β4 = biological target: T15, α3β4 (Homo sapiens, UniProt P30926+P32297); test: Ion channel panel (IonWorks Barracuda): α3β4; format: cell-based; settings: 100% = no change, <100% = inhibition
T15 construct: host or cells: HEK293 or CHO
Procedure, shortened: as §1

[1] = first of two Nav1.5 columns (probably TP1)
[2] = second of two Nav1.5 columns (probably TP2)
[3] = first of two Nav1.7 columns (probably TP1)
[4] = second of two Nav1.7 columns (probably TP2)

Chain of Nav1.5 (Q14524 whole entry): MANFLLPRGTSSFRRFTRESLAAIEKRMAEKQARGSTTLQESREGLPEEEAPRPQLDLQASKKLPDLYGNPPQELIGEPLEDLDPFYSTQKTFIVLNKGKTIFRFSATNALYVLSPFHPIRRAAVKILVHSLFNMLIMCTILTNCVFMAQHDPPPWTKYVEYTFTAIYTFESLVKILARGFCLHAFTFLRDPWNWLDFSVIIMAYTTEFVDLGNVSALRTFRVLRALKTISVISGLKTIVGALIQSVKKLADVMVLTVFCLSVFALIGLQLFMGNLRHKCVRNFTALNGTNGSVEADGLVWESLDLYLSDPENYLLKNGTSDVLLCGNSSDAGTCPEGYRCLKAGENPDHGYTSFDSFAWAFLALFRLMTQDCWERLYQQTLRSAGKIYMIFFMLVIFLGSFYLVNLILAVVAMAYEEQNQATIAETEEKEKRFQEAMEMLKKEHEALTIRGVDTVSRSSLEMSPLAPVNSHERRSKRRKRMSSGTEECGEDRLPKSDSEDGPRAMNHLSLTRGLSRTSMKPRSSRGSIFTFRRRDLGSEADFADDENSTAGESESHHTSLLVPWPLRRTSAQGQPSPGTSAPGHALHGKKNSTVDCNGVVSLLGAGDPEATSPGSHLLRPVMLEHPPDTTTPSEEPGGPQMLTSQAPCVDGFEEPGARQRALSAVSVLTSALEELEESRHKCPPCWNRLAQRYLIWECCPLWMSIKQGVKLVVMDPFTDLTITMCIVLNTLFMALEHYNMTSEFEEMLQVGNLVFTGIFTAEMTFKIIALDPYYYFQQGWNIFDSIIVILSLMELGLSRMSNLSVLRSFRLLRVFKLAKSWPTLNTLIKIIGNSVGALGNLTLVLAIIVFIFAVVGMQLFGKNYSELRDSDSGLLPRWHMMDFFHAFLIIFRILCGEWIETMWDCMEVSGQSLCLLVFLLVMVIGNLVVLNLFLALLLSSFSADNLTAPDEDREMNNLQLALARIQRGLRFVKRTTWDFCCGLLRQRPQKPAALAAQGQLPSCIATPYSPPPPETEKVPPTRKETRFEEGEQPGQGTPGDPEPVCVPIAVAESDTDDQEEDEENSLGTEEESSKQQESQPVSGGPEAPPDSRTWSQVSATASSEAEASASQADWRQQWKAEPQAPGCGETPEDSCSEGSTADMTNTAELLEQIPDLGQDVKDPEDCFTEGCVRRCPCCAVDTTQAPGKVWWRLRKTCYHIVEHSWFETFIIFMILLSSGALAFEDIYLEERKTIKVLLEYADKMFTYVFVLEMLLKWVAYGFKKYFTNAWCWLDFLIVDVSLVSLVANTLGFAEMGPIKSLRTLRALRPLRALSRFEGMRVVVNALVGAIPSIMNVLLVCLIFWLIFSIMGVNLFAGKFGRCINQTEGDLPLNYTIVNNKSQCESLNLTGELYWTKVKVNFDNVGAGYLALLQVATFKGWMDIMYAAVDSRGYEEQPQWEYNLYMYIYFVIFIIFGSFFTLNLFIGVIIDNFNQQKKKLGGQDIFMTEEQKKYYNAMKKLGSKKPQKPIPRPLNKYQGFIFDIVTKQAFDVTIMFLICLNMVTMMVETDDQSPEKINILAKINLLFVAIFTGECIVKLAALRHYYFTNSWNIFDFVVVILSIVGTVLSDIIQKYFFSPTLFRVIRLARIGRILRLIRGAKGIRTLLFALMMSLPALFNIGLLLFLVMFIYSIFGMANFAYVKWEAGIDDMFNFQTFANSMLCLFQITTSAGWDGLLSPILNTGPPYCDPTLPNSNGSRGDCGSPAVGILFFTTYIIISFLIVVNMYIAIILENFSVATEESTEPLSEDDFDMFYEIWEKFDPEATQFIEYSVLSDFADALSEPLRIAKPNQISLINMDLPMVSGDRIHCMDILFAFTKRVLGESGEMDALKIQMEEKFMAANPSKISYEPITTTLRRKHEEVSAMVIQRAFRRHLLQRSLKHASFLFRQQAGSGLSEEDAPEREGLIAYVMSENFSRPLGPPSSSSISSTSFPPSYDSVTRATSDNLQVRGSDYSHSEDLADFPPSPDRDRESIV

With “16 (GSQFCGTNGKPCVNGQCCGALRCVVTYHYADGVCLKMNP) [compound 16]” the “Activity of Nav1.5 with peptide, expressed as a percentage of the reference compound” value (Nav1.5; [1]) was 107%, the “Activity of Nav1.5 with peptide, expressed as a percentage of the reference compound” value (Nav1.5; [2]) was 104% and the “Activity of Nav1.5 with peptide (percentage of the reference compound)” value (Nav1.5; [1]) was 93%. For the same substance, the “Activity of Nav1.5 with peptide (percentage of the reference compound)” value (Nav1.5; [2]) was 93%, the “Activity of hERG with peptide, expressed as a percentage of the reference compound” value (hERG; peptide at 0.2 μM) was 74% and the “Activity of hERG with peptide (percentage of the reference compound)” value (hERG; peptide at 20 μM) was 71%. For the same substance, the “Activity of 5HT3a with peptide (percentage of the reference compound)” value (5HT3a) was 103%, the “Activity of 5HT3a with peptide, expressed as a percentage of the reference compound” value (5HT3a) was 114% and the “Activity of NR2B with peptide, expressed as a percentage of the reference compound” value (NR2B; peptide at 0.2 μM) was 88%. The “Activity of NR2B with peptide (percentage of the reference compound)” value (NR2B; peptide at 20 μM) was 91%, the “Activity of NR2A with peptide, expressed as a percentage of the reference compound” value (NR2A; peptide at 0.2 μM) was 101% and the “Activity of NR2A with peptide (percentage of the reference compound)” value (NR2A; peptide at 20 μM) was 95%. The “Activity of Cav2.1 with peptide, expressed as a percentage of the reference compound” value (Cav2.1; peptide at 0.2 μM) was 113%, the “Activity of Cav2.1 with peptide (percentage of the reference compound)” value (Cav2.1; peptide at 20 μM) was 92% and the “Activity of Cav2.2 with peptide, expressed as a percentage of the reference compound” value (Cav2.2; peptide at 0.2 μM) was 124%. The “Activity of Cav2.2 with peptide (percentage of the reference compound)” value (Cav2.2; peptide at 20 μM) was 104%, the “Activity of Kv2.1 with peptide, expressed as a percentage of the reference compound” value (Kv2.1; peptide at 0.2 μM) was 114% and the “Activity of Kv2.1 with peptide (percentage of the reference compound)” value (Kv2.1; peptide at 20 μM) was 98%. For the same substance, the “Activity of GABA with peptide, expressed as a percentage of the reference compound” value (GABA; peptide at 0.2 μM) was 102%, the “Activity of GABA with peptide (percentage of the reference compound)” value (GABA; peptide at 20 μM) was 109% and the “Activity of TRPA1 with peptide, expressed as a percentage of the reference compound” value (TRPA1; peptide at 0.2 μM) was 99%. The “Activity of TRPA1 with peptide (percentage of the reference compound)” value (TRPA1; peptide at 20 μM) was 116%, the “Activity of a4b2 with peptide, expressed as a percentage of the reference compound” value (α4β2; peptide at 0.2 μM) was 83% and the “Activity of a4b2 with peptide (percentage of the reference compound)” value (α4β2; peptide at 20 μM) was 72%. The “Activity of Kv1.3 with peptide, expressed as a percentage of the reference compound” value (Kv1.3; peptide at 0.2 μM) was 92%, the “Activity of Kv1.3 with peptide (percentage of the reference compound)” value (Kv1.3; peptide at 20 μM) was 92% and the “Activity of Kv1.2 with peptide, expressed as a percentage of the reference compound” value (Kv1.2; peptide at 0.2 μM) was 78%. The “Activity of Kv1.2 with peptide (percentage of the reference compound)” value (Kv1.2; peptide at 20 μM) was 61%, the “Activity of Kv1.1 with peptide, expressed as a percentage of the reference compound” value (Kv1.1; peptide at 0.2 μM) was 84% and the “Activity of Kv1.1 with peptide (percentage of the reference compound)” value (Kv1.1; peptide at 20 μM) was 67%. The “Activity of Nav1.7 with peptide, expressed as a percentage of the reference compound” value (Nav1.7; [3]) was 86%, the “Activity of Nav1.7 with peptide, expressed as a percentage of the reference compound” value (Nav1.7; [4]) was 91% and the “Activity of Nav1.7 with peptide (percentage of the reference compound)” value (Nav1.7; [3]) was 66%. For the same substance, the “Activity of Nav1.7 with peptide (percentage of the reference compound)” value (Nav1.7; [4]) was 43%, the “Activity of Kir2.1 with peptide, expressed as a percentage of the reference compound” value (Kir2.1; peptide at 0.2 μM) was 98% and the “Activity of Kir2.1 with peptide (percentage of the reference compound)” value (Kir2.1; peptide at 20 μM) was 92%. For the same substance, the “Activity of TRPV1 with peptide, expressed as a percentage of the reference compound” value (TRPV1; peptide at 0.2 μM) was 107%, the “Activity of TRPV1 with peptide (percentage of the reference compound)” value (TRPV1; peptide at 20 μM) was 88% and the “Activity of a3b4 with peptide, expressed as a percentage of the reference compound” value (α3β4; peptide at 0.2 μM) was 100%. For the same substance, the “Activity of a3b4 with peptide (percentage of the reference compound)” value (α3β4; peptide at 20 μM) was 95%.
